Consider 1 substance from patent US20030147810A1.

Assay [1] has as its target secreted alkaline phosphatase with the wild type BACE cleavage site of amyloid precursor and the KDEL sequence (UniProt P05187). In words: cell-based or functional assay.
For assay [2], the target named is secreted alkaline phosphatase fused to the Swedish mutation of the BACE cleavage site in APP (…) and the KDEL sequence (UniProt P05187). The assay is described as follows: cell-based or functional assay.

BACE (beta-site APP-cleaving enzyme): in assay [1], the alkaline phosphatase activity in the conditioned media of transfected neuro-2 cells (chemiluminescence, photons) stood at 83700 photons and the alkaline phosphatase activity in the conditioned media of transfected neuro-2 cells, percent of control (no KDEL) is 1.6 % of control. Also, in assay [2], the alkaline phosphatase activity in the conditioned media of transfected neuro-2 cells (chemiluminescence, photons) amounted to 3.46e+06 photons and the efficiency of secretion: alkaline phosphatase activity in the conditioned media of transfected neuro-2 cells, percent of control (no KDEL) is 66 % of control.
